The text below walks through data of article PMC9932110.

The target of experiment [1] is Armc8β (mouse). Description: native gel or EMSA; blue native PAGE of Armc8β.
The target in experiment [2] is Armc8β (mouse). Description: SEC-MALS; Armc8β alone, dilution series from two purifications; molar mass at the peak against peak concentration, one-site and two-site models; monomer to dimer and higher. A general note: In gel filtration, larger molecules generally elute earlier.
Experiment [3] concerns the target Armc8β (mouse). Briefly: ITC; ITC-200, 25 °C, 20 mM tricine pH 8.0, 150 or 200 mM NaCl, 1 mM TCEP; 50-150 μM in the syringe, 10 times lower in the cell; one-site model. (Isothermal titration calorimetry measures the heat released or taken up as one component is titrated into another.)
The target of experiment [4] is Armc8β (mouse). Briefly: SEC-MALS; Twa1, Armc8β and their mixture at low concentrations.
Experiment [5] has as its target Twa1–Armc8β complex (mouse) (UniProt Q9D7M1). Description: SEC-MALS; Tβ complex, dilution series; molar mass at the peak against peak concentration, one-site model; Tβ heterodimer to higher order oligomers.
Experiment [6] deals with muskelin (rat) (UniProt Q99PV3). Briefly: ITC; ITC-200, 25 °C, 20 mM tricine pH 8.0, 150 or 200 mM NaCl, 1 mM TCEP; 50-150 μM in the syringe, 10 times lower in the cell; one-site model.
Experiment [7] concerns the target Wdr26 (mouse) (UniProt Q8C6G8). The experiment is described as above.

Chain of Wdr26 (mouse) (Q8C6G8 other isoform, or with tags, fused parts or gaps): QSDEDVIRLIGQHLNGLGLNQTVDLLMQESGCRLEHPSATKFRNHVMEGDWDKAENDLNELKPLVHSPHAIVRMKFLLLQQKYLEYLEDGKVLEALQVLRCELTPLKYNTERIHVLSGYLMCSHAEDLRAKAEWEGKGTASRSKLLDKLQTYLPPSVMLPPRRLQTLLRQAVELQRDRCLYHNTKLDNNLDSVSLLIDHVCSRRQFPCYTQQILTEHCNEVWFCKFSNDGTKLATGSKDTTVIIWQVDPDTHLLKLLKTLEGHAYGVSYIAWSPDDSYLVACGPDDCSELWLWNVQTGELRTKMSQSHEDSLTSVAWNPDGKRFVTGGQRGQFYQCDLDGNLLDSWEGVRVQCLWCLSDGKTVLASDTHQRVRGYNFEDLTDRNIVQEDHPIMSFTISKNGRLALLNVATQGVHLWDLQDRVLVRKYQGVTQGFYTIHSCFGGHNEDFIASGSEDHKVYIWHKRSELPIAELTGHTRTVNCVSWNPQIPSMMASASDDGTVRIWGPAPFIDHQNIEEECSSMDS
Chain of Twa1 (Q9D7M1 whole entry): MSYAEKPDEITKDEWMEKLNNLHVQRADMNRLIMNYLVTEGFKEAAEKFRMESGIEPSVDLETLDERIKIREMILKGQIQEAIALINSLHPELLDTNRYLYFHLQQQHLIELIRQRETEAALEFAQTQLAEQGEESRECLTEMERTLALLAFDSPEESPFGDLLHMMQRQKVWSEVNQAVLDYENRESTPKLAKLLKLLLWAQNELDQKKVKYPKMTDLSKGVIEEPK
Chain of muskelin (rat) (Q99PV3 whole entry): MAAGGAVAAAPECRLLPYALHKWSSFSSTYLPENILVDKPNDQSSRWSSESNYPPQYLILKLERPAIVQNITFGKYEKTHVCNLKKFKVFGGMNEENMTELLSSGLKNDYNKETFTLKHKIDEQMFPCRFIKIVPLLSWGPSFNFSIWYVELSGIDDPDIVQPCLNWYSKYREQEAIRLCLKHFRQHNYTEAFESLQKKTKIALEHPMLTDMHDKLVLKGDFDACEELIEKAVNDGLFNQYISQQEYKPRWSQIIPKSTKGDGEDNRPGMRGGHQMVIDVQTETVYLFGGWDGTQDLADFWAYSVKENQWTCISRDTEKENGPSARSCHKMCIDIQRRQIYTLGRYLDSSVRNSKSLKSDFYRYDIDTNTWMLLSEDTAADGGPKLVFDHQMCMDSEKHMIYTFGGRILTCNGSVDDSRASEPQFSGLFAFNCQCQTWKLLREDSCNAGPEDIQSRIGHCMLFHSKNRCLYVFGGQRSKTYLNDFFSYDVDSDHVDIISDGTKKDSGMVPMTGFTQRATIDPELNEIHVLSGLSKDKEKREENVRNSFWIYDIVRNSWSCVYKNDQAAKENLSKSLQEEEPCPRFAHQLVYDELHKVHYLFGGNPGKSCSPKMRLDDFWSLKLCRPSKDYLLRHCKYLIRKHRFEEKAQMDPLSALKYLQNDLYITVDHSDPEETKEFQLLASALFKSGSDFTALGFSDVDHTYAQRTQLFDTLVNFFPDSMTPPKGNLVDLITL

In general, stoichiometry N refers to a count of units in the complex or per binding partner. The term Kd denotes the constant that tells how readily two partners part at equilibrium. Read a high Kd as weaker binding. As to Armc8β (natural protein), the stoichiometry N in experiment [1] turned out to be 3. In experiment [2], the KD high (two-site binding model) came out at 1800 nM, the KD low (two-site binding model) is > 40000 nM, the Kd was 5100 nM and the stoichiometry N was in the range of 1 to 2.
In the case of “Twa1 (from UniProt Q9D7M1 1-228) (natural protein)”, the Kd in experiment [3] is 34.4 nM. Also, the stoichiometry N in experiment [4] stood at 1.
Take “Twa1–Armc8β complex (from UniProt Q9D7M1 1-228)”: in experiment [5], the Kd turned out to be 6200 nM and the stoichiometry N came out at 8.2.
Take “RanBP9–Twa1 complex (from UniProt P69566 1-653; Q9D7M1 1-228)”: the values for the Kd in experiment [3], in experiment [6] and in experiment [7] were 8.1 nM, 1.7 nM and 3.4 nM, respectively. The stoichiometry N in experiment [6] was determined as 1; in experiment [7], 0.95.
